Target: T1, HypF (E. coli, UniProt P30131 1-750)
T1 construct: HypF, carbamoyltransferase of [NiFe]-hydrogenase maturation of E. coli; 82 kDa; also called His-tagged HypF; auxiliary protein HypF; source: isolated from E. coli, purified as described previously [21] with 10 mM magnesium acetate in all buffers
T1 sequence (looked up): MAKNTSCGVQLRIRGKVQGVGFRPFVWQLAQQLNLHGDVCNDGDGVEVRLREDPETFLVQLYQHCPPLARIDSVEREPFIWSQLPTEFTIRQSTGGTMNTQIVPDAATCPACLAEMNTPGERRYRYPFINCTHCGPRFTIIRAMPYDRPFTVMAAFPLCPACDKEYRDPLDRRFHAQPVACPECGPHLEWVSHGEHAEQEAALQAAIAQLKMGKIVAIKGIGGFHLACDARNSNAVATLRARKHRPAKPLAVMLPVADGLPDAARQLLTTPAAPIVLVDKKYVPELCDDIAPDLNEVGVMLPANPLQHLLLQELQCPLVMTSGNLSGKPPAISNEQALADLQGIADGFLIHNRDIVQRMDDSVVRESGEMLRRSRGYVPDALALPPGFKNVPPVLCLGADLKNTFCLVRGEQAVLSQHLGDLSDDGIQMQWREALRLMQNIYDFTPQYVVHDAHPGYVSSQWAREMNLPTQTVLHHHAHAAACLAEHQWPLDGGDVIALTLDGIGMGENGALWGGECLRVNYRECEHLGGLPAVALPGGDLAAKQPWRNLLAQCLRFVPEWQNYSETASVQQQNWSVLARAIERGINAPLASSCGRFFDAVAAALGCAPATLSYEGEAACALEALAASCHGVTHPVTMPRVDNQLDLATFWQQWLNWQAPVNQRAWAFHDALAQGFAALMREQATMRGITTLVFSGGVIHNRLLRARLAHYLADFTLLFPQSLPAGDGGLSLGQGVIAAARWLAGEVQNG
Assay: native gel or EMSA; native PAGE as described earlier [35,36]; isolated HypE and HypF; no further conditions told for this experiment
Details: both partners purified

binding result: binds
B1: HypE (natural protein, E. coli, UniProt P24193 1-336, looked up)
chain: MNNIQLAHGSGGQAMQQLINSLFMEAFANPWLAEQEDQARLDLAQLVAEGDRLAFSTDSYVIDPLFFPGGNIGKLAICGTANDVAVSGAIPRYLSCGFILEEGLPMETLKAVVTSMAETARAAGIAIVTGDTKVVQRGAVDKLFINTAGMGAIPANIHWGAQTLTAGDVLLVSGTLGDHGATILNLREQLGLDGELVSDCAVLTPLIQTLRDIPGVKALRDATRGGVNAVVHEFAAACGCGIELSEAALPVKPAVRGVCELLGLDALNFANEGKLVIAVERNAAEQVLAALHSHPLGKDAALIGEVVERKGVRLAGLYGVKRTLDLPHAEPLPRIC
notes: HypE, [NiFe]-hydrogenase maturation protein of E. coli; 36 kDa monomer; C-terminal cysteine C336 in E. coli nomenclature; also called His-tagged HypE; auxiliary protein HypE; source: isolated from E. coli, purified as described previously [21] with 10 mM magnesium acetate in all buffers
